The source of these data is patent US20160047001A1, “Sept4/ARTS AS A TUMOR SUPPRESSOR IN THE DIAGNOSIS, PROGNOSIS AND TREATMENT OF HEPATIC DISORDERS” (CARMEL-HAIFA UNIVERSITY ECONOMIC CORPORATION LTD., priority 2013, published 2016).

Entries after “also recorded” stand apart in the source; their conditions may differ.

In data set [1] the test system is ARTS mRNA. Kind of data set: RT-PCR of ARTS mRNA after exposure to chromatin-modifying drugs. It counts as cell-based, human. The following applies: for ARTS mRNA level: HCC cell-lines, individual treatment, AZA 10 μM, TSA 1 μM; for ARTS levels: PH5CH non-malignant hepatocyte cell-line. The protocol:
Quantitative reverse transcription polymerase chain reactions (qRT-PCR) incorporating SYBR Green (Applied Biosystems) were carried-out using a Realplex qPCR Mastercycler (Eppendorf; Hauppauge, N.Y.). For semi-quantitative PCR, total RNA was extracted from cell-lines using Trizol reagent (Invitrogen, Carlsbad, Calif.) and in turn, was used to synthesize cDNA using random primers, reagents, and protocol provided in the Superscript 1st strand synthesis kit (Invitrogen). Normalized amounts of cDNA served as template in standard PCR using AmpliTaq DNA polymerase (Applied Biosystems). Immunoblotting was performed as previously described in (7). Cell extracts were prepared from tumor and adjacent non-tumor control tissues that were excised from the liver of sacrificed mice, homogenized by Polytron PT 2100 (Brinkman) in Triton X-100 lysis buffer and clarified by centrifugation. Extracts were normalized for protein concentration by Bradford assay (BioRad) prior to immunoblotting procedures. Signal detection was performed with enhanced chemiluminescence kit (Amersham). The following primary antibodies were used: anti-A6 (gift from Dr. V. Factor NCI/NIH), anti-Flag and anti-β-actin (Sigma); anti-XIAP (Becton Dickinson); anti-cIAP-1 (R&D Systems); anti-β-catenin and anti-Survivin (Cell Signaling), anti-cytokeratin-8 (Fitzgerald Indust. Intl., Concord, Mass.). 5-Aza-2′deoxycytidine (AZA), Trichostatin A (TSA), and cycloheximide (CHX) were purchased from Sigma-Alrich. Tumor-necrosis factor-α, the anti-Fas antibody (Jo-2), and the in vitro methylated genomic Hela DNA were obtained from Peprotech, Pharminogen, and New England Biolabs, respectively. To examine the possibility of epigenetic regulation, chromatin-modifying drugs were tested for their ability to influence ARTS expression. Cells were exposed to DNA-methyltransferase and HDAC inhibitors 5′ aza-cytosine (AZA) and trichostatin A (TSA), respectively.

For data set [2], the system named is PHM-1 hepatoblasts. The data set can be described thus: Growth of PHM-1 hepatoblasts after sub-cutaneous transplantation into host mice. It is filed as in vivo. The conditions noted are these: PHM-1 cells carrying the hairpin, sub-cutaneous injection into host mice. From the text:
FIG. 5D. Growth of PHM-1 hepatoblasts following their sub-cutaneous transplantation into host mice. Values are the mean±standard deviation of four independent experiments. P-values: *P=0.04, **P=0.03, and ***P=0.01.
Details on isolation, culture, retrovirus-mediated gene transfer, and sub-cutaneous transplantation of hepatoblasts can be found in (30). Cell viability was monitored by propidium iodide (PI) nuclear staining and flow cytometric analysis.

The subject of data set [3] is Sept4/H5-Flag. The data set can be described thus: Western blot (anti-Flag) of Sept4/H5-Flag knockdown in NIH3T3 fibroblasts. It counts as cell-based. The following applies: NIH3T3 fibroblasts stably expressing Sept4/H5-Flag; retroviral shRNA; anti-Flag immunoblot. The protocol:
FIG. 5I. A pan-Sept4- and Sept4/H5-specific short-hairpins promote efficient knowndown. […] NIH3T3 fibroblasts stably expressing Flag-epitope tagged Sept4/H5 (Sept4/H5-Flag) were transduced with retroviruses harboring the indicated shRNAs, a non-silencing control, or left un-infected Immunoblotting was performed with anti-Flag antibody to detect Sept4/H5-Flag expression (red arrow).
(§1) miR30-designed shRNAs were subcloned into the pLMP (MSCV-based) retroviral vector as previously described (30). Briefly, individual shRNAs were synthesized as 97 base-pair oligos (Sigma Genosys), PCR-amplified, ligated into pLMP following EcoRI/XhoI-digestion.
Immunoblotting was performed as previously described in (7). Cell extracts were prepared from tumor and adjacent non-tumor control tissues that were excised from the liver of sacrificed mice, homogenized by Polytron PT 2100 (Brinkman) in Triton X-100 lysis buffer and clarified by centrifugation. Extracts were normalized for protein concentration by Bradford assay (BioRad) prior to immunoblotting procedures. Signal detection was performed with enhanced chemiluminescence kit (Amersham). […]
For orientation: A western blot detects proteins with antibodies after separation by electrophoresis.

Data set [4] relates to ARTS. The data set can be described thus: Western blot of ARTS knockdown by hairpins in NIH3T3 fibroblasts. It is filed as cell-based. The protocol: as §1
Immunoblotting was performed as previously described in (7). Cell extracts were prepared from tumor and adjacent non-tumor control tissues that were excised from the liver of sacrificed mice, homogenized by Polytron PT 2100 (Brinkman) in Triton X-100 lysis buffer and clarified by centrifugation. Extracts were normalized for protein concentration by Bradford assay (BioRad) prior to immunoblotting procedures. Signal detection was performed with enhanced chemiluminescence kit (Amersham). The following primary antibodies were used: anti-A6 (gift from Dr. V. Factor NCI/NIH), anti-Flag and anti-β-actin (Sigma); anti-XIAP (Becton Dickinson); anti-cIAP-1 (R&D Systems); anti-β-catenin and anti-Survivin (Cell Signaling), anti-cytokeratin-8 (Fitzgerald Indust. Intl., Concord, Mass.). 5-Aza-2′deoxycytidine (AZA), Trichostatin A (TSA), and cycloheximide (CHX) were purchased from Sigma-Alrich. Tumor-necrosis factor-α, the anti-Fas antibody (Jo-2), and the in vitro methylated genomic Hela DNA were obtained from Peprotech, Pharminogen, and New England Biolabs, respectively.

On to `Nc1ncn([C@H]2C[C@H](O)[C@@H](CO)O2)c(=O)n1` [AZA, 5-Aza-2′deoxycytidine], for which, in data set [1], the “ARTS mRNA level” value was “upregulation of ARTS mRNA; also recorded: induced ARTS mRNA to levels comparable to those observed in normal hepatocytes” and the ARTS levels entry was “little appreciable effect”. The matching figures for `CC(/C=C/C(=O)NO)=C\[C@@H](C)C(=O)c1ccc(N(C)C)cc1` [TSA, Trichostatin A]: “upregulation of ARTS mRNA; also recorded: induced ARTS mRNA to levels comparable to those observed in normal hepatocytes” and “little appreciable effect”.

B1: sh-panSept4: miR30-designed shRNA targeting all Sept4-isoforms, including ARTS (nucleic acid)
chain: TGCTGTTGACAGTGAGCGCAAGCACGCAGTGGATATAGAATAGTGAAGCCACAGATGTATTCTATATCCACTGCGTGCTTATGCCTACTGCCTCGGA
As for B1, the tumor growth result in data set [2] was “promoted tumor growth”. In addition, the Sept4/H5 knockdown entry in data set [3] is reported as “highly effective Sept4/H45 knockdown”. The “ARTS levels (knockdown)” value in data set [4] was “capable of reducing ARTS levels”.

B2: sh-ARTS-2: miR30-designed shRNA specifically targeting ARTS, in pLMP retroviral vector (nucleic acid)
chain: TGCTGTTGACAGTGAGCGAAACAGGCCGAGTAGCACCACATAGTGAAGCCACAGATGTATGTGGTGCTACTCGGCCTGTTCTGCCTACTGCCTCGGA
Consider B2, for which the “ARTS levels (knockdown)” value in data set [4] was “capable of reducing ARTS levels”.

B3: sh-ARTS-3: miR30-designed shRNA specifically targeting ARTS, in pLMP retroviral vector (nucleic acid)
chain: TGCTGTTGACAGTGAGCGACGGGTGGTCACTGATTCCTGTTAGTGAAGCCACAGATGTAACAGGAATCAGTGACCACCCGCTGCCTACTGCCTCGGA
As for B3, in data set [4], the “ARTS levels (knockdown)” value is on record as “capable of reducing ARTS levels”.

B4: sh-ARTS-1: miR30-designed shRNA specifically targeting ARTS, in pLMP retroviral vector (nucleic acid)
chain: TGCTGTTGACAGTGAGCGCAAGGGAACAGGCCGAGTAGCATAGTGAAGCCACAGATGTATGCTACTCGGCCTGTTCCCTTATGCCTACTGCCTCGGA
Regarding B4, in data set [4], the “ARTS levels (knockdown)” value is given as “capable of reducing ARTS levels”.
